{"source": "patent US20210388087A1", "about": "(Chugai, published 2021)", "binders": {"B1": {"name": "H183/L072 VH W33R (antibody, name in Kabat numbering, V domains shown)", "VH": "QVQLVESGGGLVQPGRSLRLSCAASGFTFSNARMHWVRQAPGKGLEWVAQIKDKGNAYAAYYAPSVKGRFTISRDDSKNSIYLQMNSLKTEDTAVYYCHYVHYASASTVLPAFGVDAWGQGTTVTVSS", "VL": "DIVMTQSPLSLPVTPGEPASISCQASQELVHMNRNTYLHWYQQKPGQAPRLLIYKVSNRFPGVPDRFSGSGSGTDFTLKISRVEAEDVGVYYCAQGTSVPFTFGQGTKLEIK"}, "B2": {"name": "H183/L072 VH Y55N (antibody, name in Kabat numbering, V domains shown)", "VH": "QVQLVESGGGLVQPGRSLRLSCAASGFTFSNAWMHWVRQAPGKGLEWVAQIKDKGNANAAYYAPSVKGRFTISRDDSKNSIYLQMNSLKTEDTAVYYCHYVHYASASTVLPAFGVDAWGQGTTVTVSS", "VL": "DIVMTQSPLSLPVTPGEPASISCQASQELVHMNRNTYLHWYQQKPGQAPRLLIYKVSNRFPGVPDRFSGSGSGTDFTLKISRVEAEDVGVYYCAQGTSVPFTFGQGTKLEIK"}, "B3": {"name": "H183/L072 VH Y55I (antibody, name in Kabat numbering, V domains shown)", "VH": "QVQLVESGGGLVQPGRSLRLSCAASGFTFSNAWMHWVRQAPGKGLEWVAQIKDKGNAIAAYYAPSVKGRFTISRDDSKNSIYLQMNSLKTEDTAVYYCHYVHYASASTVLPAFGVDAWGQGTTVTVSS", "VL": "DIVMTQSPLSLPVTPGEPASISCQASQELVHMNRNTYLHWYQQKPGQAPRLLIYKVSNRFPGVPDRFSGSGSGTDFTLKISRVEAEDVGVYYCAQGTSVPFTFGQGTKLEIK"}, "B4": {"name": "H183/L072 VH Y55E (antibody, name in Kabat numbering, V domains shown)", "VH": "QVQLVESGGGLVQPGRSLRLSCAASGFTFSNAWMHWVRQAPGKGLEWVAQIKDKGNAEAAYYAPSVKGRFTISRDDSKNSIYLQMNSLKTEDTAVYYCHYVHYASASTVLPAFGVDAWGQGTTVTVSS", "VL": "DIVMTQSPLSLPVTPGEPASISCQASQELVHMNRNTYLHWYQQKPGQAPRLLIYKVSNRFPGVPDRFSGSGSGTDFTLKISRVEAEDVGVYYCAQGTSVPFTFGQGTKLEIK"}, "B5": {"name": "H183/L072 VH Y55F (antibody, name in Kabat numbering, V domains shown)", "VH": "QVQLVESGGGLVQPGRSLRLSCAASGFTFSNAWMHWVRQAPGKGLEWVAQIKDKGNAFAAYYAPSVKGRFTISRDDSKNSIYLQMNSLKTEDTAVYYCHYVHYASASTVLPAFGVDAWGQGTTVTVSS", "VL": "DIVMTQSPLSLPVTPGEPASISCQASQELVHMNRNTYLHWYQQKPGQAPRLLIYKVSNRFPGVPDRFSGSGSGTDFTLKISRVEAEDVGVYYCAQGTSVPFTFGQGTKLEIK"}, "B6": {"name": "H183/L072 VH Y55K (antibody, name in Kabat numbering, V domains shown)", "VH": "QVQLVESGGGLVQPGRSLRLSCAASGFTFSNAWMHWVRQAPGKGLEWVAQIKDKGNAKAAYYAPSVKGRFTISRDDSKNSIYLQMNSLKTEDTAVYYCHYVHYASASTVLPAFGVDAWGQGTTVTVSS", "VL": "DIVMTQSPLSLPVTPGEPASISCQASQELVHMNRNTYLHWYQQKPGQAPRLLIYKVSNRFPGVPDRFSGSGSGTDFTLKISRVEAEDVGVYYCAQGTSVPFTFGQGTKLEIK"}, "B7": {"name": "H183/L072 VH W33V (antibody, name in Kabat numbering, V domains shown)", "VH": "QVQLVESGGGLVQPGRSLRLSCAASGFTFSNAVMHWVRQAPGKGLEWVAQIKDKGNAYAAYYAPSVKGRFTISRDDSKNSIYLQMNSLKTEDTAVYYCHYVHYASASTVLPAFGVDAWGQGTTVTVSS", "VL": "DIVMTQSPLSLPVTPGEPASISCQASQELVHMNRNTYLHWYQQKPGQAPRLLIYKVSNRFPGVPDRFSGSGSGTDFTLKISRVEAEDVGVYYCAQGTSVPFTFGQGTKLEIK"}, "B8": {"name": "H183/L072 VH Y55Q (antibody, name in Kabat numbering, V domains shown)", "VH": "QVQLVESGGGLVQPGRSLRLSCAASGFTFSNAWMHWVRQAPGKGLEWVAQIKDKGNAQAAYYAPSVKGRFTISRDDSKNSIYLQMNSLKTEDTAVYYCHYVHYASASTVLPAFGVDAWGQGTTVTVSS", "VL": "DIVMTQSPLSLPVTPGEPASISCQASQELVHMNRNTYLHWYQQKPGQAPRLLIYKVSNRFPGVPDRFSGSGSGTDFTLKISRVEAEDVGVYYCAQGTSVPFTFGQGTKLEIK"}, "B9": {"name": "H183/L072 VH W33T (antibody, name in Kabat numbering, V domains shown)", "VH": "QVQLVESGGGLVQPGRSLRLSCAASGFTFSNATMHWVRQAPGKGLEWVAQIKDKGNAYAAYYAPSVKGRFTISRDDSKNSIYLQMNSLKTEDTAVYYCHYVHYASASTVLPAFGVDAWGQGTTVTVSS", "VL": "DIVMTQSPLSLPVTPGEPASISCQASQELVHMNRNTYLHWYQQKPGQAPRLLIYKVSNRFPGVPDRFSGSGSGTDFTLKISRVEAEDVGVYYCAQGTSVPFTFGQGTKLEIK"}, "B10": {"name": "H183/L072 VH Y55P (antibody, name in Kabat numbering, V domains shown)", "VH": "QVQLVESGGGLVQPGRSLRLSCAASGFTFSNAWMHWVRQAPGKGLEWVAQIKDKGNAPAAYYAPSVKGRFTISRDDSKNSIYLQMNSLKTEDTAVYYCHYVHYASASTVLPAFGVDAWGQGTTVTVSS", "VL": "DIVMTQSPLSLPVTPGEPASISCQASQELVHMNRNTYLHWYQQKPGQAPRLLIYKVSNRFPGVPDRFSGSGSGTDFTLKISRVEAEDVGVYYCAQGTSVPFTFGQGTKLEIK"}, "B11": {"name": "H183/L072 VH W33Y (antibody, name in Kabat numbering, V domains shown)", "VH": "QVQLVESGGGLVQPGRSLRLSCAASGFTFSNAYMHWVRQAPGKGLEWVAQIKDKGNAYAAYYAPSVKGRFTISRDDSKNSIYLQMNSLKTEDTAVYYCHYVHYASASTVLPAFGVDAWGQGTTVTVSS", "VL": "DIVMTQSPLSLPVTPGEPASISCQASQELVHMNRNTYLHWYQQKPGQAPRLLIYKVSNRFPGVPDRFSGSGSGTDFTLKISRVEAEDVGVYYCAQGTSVPFTFGQGTKLEIK"}, "B12": {"name": "H183/L072 VH Y55L (antibody, name in Kabat numbering, V domains shown)", "VH": "QVQLVESGGGLVQPGRSLRLSCAASGFTFSNAWMHWVRQAPGKGLEWVAQIKDKGNALAAYYAPSVKGRFTISRDDSKNSIYLQMNSLKTEDTAVYYCHYVHYASASTVLPAFGVDAWGQGTTVTVSS", "VL": "DIVMTQSPLSLPVTPGEPASISCQASQELVHMNRNTYLHWYQQKPGQAPRLLIYKVSNRFPGVPDRFSGSGSGTDFTLKISRVEAEDVGVYYCAQGTSVPFTFGQGTKLEIK"}, "B13": {"name": "H183/L072 VH Y55S (antibody, name in Kabat numbering, V domains shown)", "VH": "QVQLVESGGGLVQPGRSLRLSCAASGFTFSNAWMHWVRQAPGKGLEWVAQIKDKGNASAAYYAPSVKGRFTISRDDSKNSIYLQMNSLKTEDTAVYYCHYVHYASASTVLPAFGVDAWGQGTTVTVSS", "VL": "DIVMTQSPLSLPVTPGEPASISCQASQELVHMNRNTYLHWYQQKPGQAPRLLIYKVSNRFPGVPDRFSGSGSGTDFTLKISRVEAEDVGVYYCAQGTSVPFTFGQGTKLEIK"}, "B14": {"name": "H183/L072 VH Y55G (antibody, name in Kabat numbering, V domains shown)", "VH": "QVQLVESGGGLVQPGRSLRLSCAASGFTFSNAWMHWVRQAPGKGLEWVAQIKDKGNAGAAYYAPSVKGRFTISRDDSKNSIYLQMNSLKTEDTAVYYCHYVHYASASTVLPAFGVDAWGQGTTVTVSS", "VL": "DIVMTQSPLSLPVTPGEPASISCQASQELVHMNRNTYLHWYQQKPGQAPRLLIYKVSNRFPGVPDRFSGSGSGTDFTLKISRVEAEDVGVYYCAQGTSVPFTFGQGTKLEIK"}, "B15": {"name": "H183/L072 VH W33S (antibody, name in Kabat numbering, V domains shown)", "VH": "QVQLVESGGGLVQPGRSLRLSCAASGFTFSNASMHWVRQAPGKGLEWVAQIKDKGNAYAAYYAPSVKGRFTISRDDSKNSIYLQMNSLKTEDTAVYYCHYVHYASASTVLPAFGVDAWGQGTTVTVSS", "VL": "DIVMTQSPLSLPVTPGEPASISCQASQELVHMNRNTYLHWYQQKPGQAPRLLIYKVSNRFPGVPDRFSGSGSGTDFTLKISRVEAEDVGVYYCAQGTSVPFTFGQGTKLEIK"}, "B16": {"name": "H183/L072 VH Y55R (antibody, name in Kabat numbering, V domains shown)", "VH": "QVQLVESGGGLVQPGRSLRLSCAASGFTFSNAWMHWVRQAPGKGLEWVAQIKDKGNARAAYYAPSVKGRFTISRDDSKNSIYLQMNSLKTEDTAVYYCHYVHYASASTVLPAFGVDAWGQGTTVTVSS", "VL": "DIVMTQSPLSLPVTPGEPASISCQASQELVHMNRNTYLHWYQQKPGQAPRLLIYKVSNRFPGVPDRFSGSGSGTDFTLKISRVEAEDVGVYYCAQGTSVPFTFGQGTKLEIK"}, "B17": {"name": "H183/L072 VH Y55D (antibody, name in Kabat numbering, V domains shown)", "VH": "QVQLVESGGGLVQPGRSLRLSCAASGFTFSNAWMHWVRQAPGKGLEWVAQIKDKGNADAAYYAPSVKGRFTISRDDSKNSIYLQMNSLKTEDTAVYYCHYVHYASASTVLPAFGVDAWGQGTTVTVSS", "VL": "DIVMTQSPLSLPVTPGEPASISCQASQELVHMNRNTYLHWYQQKPGQAPRLLIYKVSNRFPGVPDRFSGSGSGTDFTLKISRVEAEDVGVYYCAQGTSVPFTFGQGTKLEIK"}, "B18": {"name": "H183/L072 VH Y55M (antibody, name in Kabat numbering, V domains shown)", "VH": "QVQLVESGGGLVQPGRSLRLSCAASGFTFSNAWMHWVRQAPGKGLEWVAQIKDKGNAMAAYYAPSVKGRFTISRDDSKNSIYLQMNSLKTEDTAVYYCHYVHYASASTVLPAFGVDAWGQGTTVTVSS", "VL": "DIVMTQSPLSLPVTPGEPASISCQASQELVHMNRNTYLHWYQQKPGQAPRLLIYKVSNRFPGVPDRFSGSGSGTDFTLKISRVEAEDVGVYYCAQGTSVPFTFGQGTKLEIK"}, "B19": {"name": "H183/L072 VH Y55A (antibody, name in Kabat numbering, V domains shown)", "VH": "QVQLVESGGGLVQPGRSLRLSCAASGFTFSNAWMHWVRQAPGKGLEWVAQIKDKGNAAAAYYAPSVKGRFTISRDDSKNSIYLQMNSLKTEDTAVYYCHYVHYASASTVLPAFGVDAWGQGTTVTVSS", "VL": "DIVMTQSPLSLPVTPGEPASISCQASQELVHMNRNTYLHWYQQKPGQAPRLLIYKVSNRFPGVPDRFSGSGSGTDFTLKISRVEAEDVGVYYCAQGTSVPFTFGQGTKLEIK"}, "B20": {"name": "H183/L072 VH Y55H (antibody, name in Kabat numbering, V domains shown)", "VH": "QVQLVESGGGLVQPGRSLRLSCAASGFTFSNAWMHWVRQAPGKGLEWVAQIKDKGNAHAAYYAPSVKGRFTISRDDSKNSIYLQMNSLKTEDTAVYYCHYVHYASASTVLPAFGVDAWGQGTTVTVSS", "VL": "DIVMTQSPLSLPVTPGEPASISCQASQELVHMNRNTYLHWYQQKPGQAPRLLIYKVSNRFPGVPDRFSGSGSGTDFTLKISRVEAEDVGVYYCAQGTSVPFTFGQGTKLEIK"}}, "data": [{"target": "T1, Human CD3eg linker (human)", "T1 construct": "Single chain: epsilon and gamma subunits of human CD3 joined by a 29-mer linker, Flag-tag at the C-terminus; also called recombinant human CD3", "T1 chain": "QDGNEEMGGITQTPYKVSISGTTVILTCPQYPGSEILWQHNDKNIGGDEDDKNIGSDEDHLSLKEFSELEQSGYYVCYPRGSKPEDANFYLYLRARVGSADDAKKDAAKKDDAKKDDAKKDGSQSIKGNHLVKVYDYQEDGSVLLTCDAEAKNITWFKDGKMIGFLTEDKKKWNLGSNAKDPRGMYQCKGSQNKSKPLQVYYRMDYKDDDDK", "assay": "Biacore SPR, vs template H183/L072", "units": {"fold change of affinity": "fold"}, "values": [{"binder": "B1", "fold change of affinity": 0}, {"binder": "B2", "fold change of affinity": 0.7}, {"binder": "B3", "fold change of affinity": 0}, {"binder": "B4", "fold change of affinity": 0.6}, {"binder": "B5", "fold change of affinity": 0.8}, {"binder": "B6", "fold change of affinity": 0.4}, {"binder": "B7", "fold change of affinity": 0}, {"binder": "B8", "fold change of affinity": 0.5}, {"binder": "B9", "fold change of affinity": 0}, {"binder": "B10", "fold change of affinity": 0}, {"binder": "B11", "fold change of affinity": 0.1}, {"binder": "B12", "fold change of affinity": 0.5}, {"binder": "B13", "fold change of affinity": 0}, {"binder": "B14", "fold change of affinity": 0.6}, {"binder": "B15", "fold change of affinity": 0}, {"binder": "B16", "fold change of affinity": 0.4}, {"binder": "B17", "fold change of affinity": 0.4}, {"binder": "B18", "fold change of affinity": 0.6}, {"binder": "B19", "fold change of affinity": 0.4}, {"binder": "B20", "fold change of affinity": 0.7}]}]}
